Here are results for one protein from publication PMC6996649, “Rational Engineered C-Acyltransferase Transforms Sterically Demanding Acyl Donors” (ACS Catalysis, 2019).

Substrate in this data set: CC(=O)c1c(O)cc(O)cc1O
Kind of data set: purified protein. The class given is biochemical, Pseudomonas protegens. Particulars: disproportionation to DAPG, 100 mM potassium phosphate pH 7.5, 35 °C.

B1: PpATaseCH (Pseudomonas protegens Pf-5) (protein)
chain: MCARRVAIVSAAYTPKPGSSRVRQTFKEMIVESAYKALKDAKMHPREIQAVAYGYHGEGISEYGGLGPTISDALGISPAPTFMSTANCTSSSVSFQMGHQMVASGEYDIVLCGGFEKMTDHFNYAEYIGSSTECEYDYFLGISHTDAFALATAEYFQKFGYAGREADVLATFGRQMRIYAQNTPTATRYGQPIPSLEVLKNSEACGSMLAWGEASGCAILVAEHLAHKYTDKPVFVRGCAYTGVSHYFGTRFHNPTLHHPGLPKDVGMAVSANSIACAEIAYKKAGITAKDIDVAQVYDLLGAGLIQMESMGICGKGQAGDFVLEGGIALDGQLPLNTDGGNIGRGHASGCDGILHITELFRQLRGESDNQVKGARIGVSQNLGGYAAHNSVIVLSND
notes: PhlABC multi-subunit acyltransferase from codon-harmonized construct, recombinant in E. coli, purified enzyme; with 2,4-diacetylphloroglucinol biosynthesis acyltransferase subunit PhlA; 2,4-diacetylphloroglucinol biosynthesis acyltransferase subunit PhlB
As to B1, the Km was determined as 290 ± 40 µM, the Vmax came out at 4830 µM/min, the kcat was 72 ± 8 s⁻¹ and the kcat/Km was 251000 ± 15000 M⁻¹ s⁻¹.

The Km is the substrate concentration at which the rate is half of its maximum. Broadly, the Vmax is the top rate of the reaction or transport when substrate is in excess. In general, kcat refers to the maximal rate divided by the concentration of active sites. In general, kcat/Km refers to the turnover number divided by the Michaelis constant.
